Our source for the interaction score values is article PMC10397247.

Read-outs that look alike come from different tables or passages of the source.

Common to all, as to test: two-hybrid library CCmax;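 note: natural log of median RNA to DNA barcode read ratio; higher means stronger binding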
In assay [1] the target is T1, P2-AA-12HAA-E.
T1 chain: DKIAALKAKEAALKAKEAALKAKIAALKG

Assay [2] deals with T2, P2-AA-12HAA-T.
T2 chain: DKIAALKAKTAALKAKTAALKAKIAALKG
The conditions noted are these: mean of both orientations.

Assay [3] deals with T3, P2-AA-12HAA-R.
T3 chain: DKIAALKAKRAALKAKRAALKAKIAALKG

The target of assay [4] is T4, P2-AA-12HAA-K.
T4 chain: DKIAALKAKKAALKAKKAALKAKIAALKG
The conditions noted are these: mean of both orientations.

Assay [5] addresses T5, P2-AA-12HAA-L.
T5 chain: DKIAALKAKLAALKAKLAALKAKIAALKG

For assay [6], the target named is T6, P2-AA-12HAA-I.
T6 chain: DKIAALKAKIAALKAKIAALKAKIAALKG
To be noted: mean of both orientations.

The target in assay [7] is T7, P2-AA-12HAA-S.
T7 chain: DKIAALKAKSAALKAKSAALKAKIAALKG

Assay [8] addresses T8, P2-AA.
T8 chain: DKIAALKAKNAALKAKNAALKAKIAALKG
To be noted: mean of both orientations.

Assay [9] addresses T9, P2-AA-12HAA-V.
T9 chain: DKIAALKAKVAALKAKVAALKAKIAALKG
To be noted: mean of both orientations.

The target of assay [10] is T10, P2-AA-12HAA-H.
T10 chain: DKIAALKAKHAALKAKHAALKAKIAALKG
To be noted: mean of both orientations.

The target in assay [11] is T11, P2-AA-12HAA-Y.
T11 chain: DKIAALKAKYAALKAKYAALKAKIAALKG
To be noted: mean of both orientations.

Assay [12] concerns the target T12, P2-AA-12HAA-D.
T12 chain: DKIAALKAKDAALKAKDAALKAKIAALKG
The conditions noted are these: mean of both orientations.

In assay [13] the target is T13, P6-AA-1HAA-K.
T13 chain: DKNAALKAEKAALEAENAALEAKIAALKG
The conditions noted are these: mean of both orientations.

Assay [14] addresses T14, P6-AA-1HAA-Y.
T14 chain: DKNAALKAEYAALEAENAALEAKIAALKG
To be noted: mean of both orientations.

Assay [15] deals with T15, P6-AA-1HAA-D.
T15 chain: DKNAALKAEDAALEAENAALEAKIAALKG
To be noted: mean of both orientations.

The target in assay [16] is T16, P6-AA-1HAA-H.
T16 chain: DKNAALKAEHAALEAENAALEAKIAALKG
To be noted: mean of both orientations.

Assay [17] addresses T17, P6-AA-1HAA-R.
T17 chain: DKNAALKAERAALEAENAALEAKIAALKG
The conditions noted are these: mean of both orientations.

For assay [18], the target named is T18, P6-AA-1HAA-V.
T18 chain: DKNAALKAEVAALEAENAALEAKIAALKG
To be noted: mean of both orientations.

Assay [19] deals with T19, P6-AA-1HAA-N.
T19 chain: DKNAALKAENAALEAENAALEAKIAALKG
The conditions noted are these: mean of both orientations.

In assay [20] the target is T20, P6-AA-1HAA-E.
T20 chain: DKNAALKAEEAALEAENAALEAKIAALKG
To be noted: mean of both orientations.

Assay [21] has as its target T21, P6-AA-1HAA-S.
T21 chain: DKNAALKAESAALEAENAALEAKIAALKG
The conditions noted are these: mean of both orientations.

Assay [22] has as its target T22, P6-AA-1HAA-L.
T22 chain: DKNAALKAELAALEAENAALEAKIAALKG
The conditions noted are these: mean of both orientations.

Assay [23] has as its target T23, P6-AA-1HAA-T.
T23 chain: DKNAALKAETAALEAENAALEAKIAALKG
The conditions noted are these: mean of both orientations.

Assay [24] addresses T24, P6-AA-12HAA-R.
T24 chain: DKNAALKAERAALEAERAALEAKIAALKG
To be noted: mean of both orientations.

The target of assay [25] is T25, P6-AA-12HAA-D.
T25 chain: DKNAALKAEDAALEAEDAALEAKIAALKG
The conditions noted are these: mean of both orientations.

Assay [26] addresses T26, P6-AA-12HAA-L.
T26 chain: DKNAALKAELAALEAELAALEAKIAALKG
To be noted: mean of both orientations.

For assay [27], the target named is T27, P6-AA-12HAA-Y.
T27 chain: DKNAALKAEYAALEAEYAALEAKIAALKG
To be noted: mean of both orientations.

Assay [28] concerns the target T28, P6-AA-12HAA-K.
T28 chain: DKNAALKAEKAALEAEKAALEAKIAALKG
To be noted: mean of both orientations.

For assay [29], the target named is T29, P6-AA-12HAA-T.
T29 chain: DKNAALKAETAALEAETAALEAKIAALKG
To be noted: mean of both orientations.

Assay [30] concerns the target T30, P6-AA-12HAA-E.
T30 chain: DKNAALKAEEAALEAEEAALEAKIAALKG
To be noted: mean of both orientations.

Assay [31] concerns the target T31, P6-AA-12HAA-V.
T31 chain: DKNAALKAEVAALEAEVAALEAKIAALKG
The conditions noted are these: mean of both orientations.

Assay [32] has as its target T32, P6-AA-12HAA-S.
T32 chain: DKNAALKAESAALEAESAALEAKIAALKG
The conditions noted are these: mean of both orientations.

Assay [33] deals with T33, P6-AA-12HAA-H.
T33 chain: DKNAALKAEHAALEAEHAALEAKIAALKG
To be noted: mean of both orientations.

Turning to DEIAALEAETAALEAETAALEAEIAALEG [P1-AA-12HAA-T], the interaction score worked out at 0.124 in assay [1] (mean of both orientations); 1.56 in assay [2]; 1.79 in assay [3]; 1.37 in assay [4]; 1.97 in assay [5] (mean of both orientations); 1.84 in assay [6]. For the same molecule, the interaction score in assay [7] (mean of both orientations) was 1.33; in assay [8] it was 2.07; in assay [9], 1.98; in assay [10], 1.5; in assay [11] it was 1.53; in [12], -1.06.
In the case of DENAALEAKTAALKAKNAALKAEIAALEG [P5-AA-1HAA-T], the interaction score in assay [13] is 0.498; in assay [14] it was 1.19; in assay [15], -0.594; in assay [16], 1.47; in assay [17] it was 0.322; in assay [18], 2.01. Besides, the interaction score in assay [19] came out at 0.702; in assay [20], 0.317; in [21] it was 0.78; in [22] it was 1.91; in assay [23], 0.456.
Take DENAALEAKNAALKAKNAALKAEIAALEG [P5-AA-1HAA-N]: the interaction score was 0.958 in assay [13]; 1.5 in assay [14]; -0.112 in [24]; -0.622 in assay [15]; 1.2 in assay [16]; 0.871 in assay [17]. In addition, the interaction score in assay [25] was -1.55; in assay [18] it was 1.86; in assay [19] it was 2.27; in [20] it was 0.442; in assay [26], -0.372; in assay [27], 0.697. Moreover, the interaction score in assay [28] is -0.291; in [29] it was -0.0689; in assay [30] it was -0.844; in assay [21], 1.15; in [31], -0.62; in assay [22], 1.05. Moreover, the interaction score was -0.405 in assay [32], 0.901 in assay [33] and 1.25 in assay [23].
For DEIAALEAEHAALEAEHAALEAEIAALEG [P1-AA-12HAA-H], the interaction score in assay [1] (mean of both orientations) was 0.0438; in assay [2], 1.16; in [3] (mean of both orientations), -0.0784; in assay [4], 0.96; in assay [5] (mean of both orientations), 1.83; in assay [6], 1.75. The interaction score in [7] (mean of both orientations) is 1.07; in [8], 1.85; in assay [9] it was 1.78; in assay [10], -0.35; in [11], -0.416; in assay [12], -1.24.
Consider DEIAALEAEKAALEAEKAALEAEIAALEG [P1-AA-12HAA-K], for which the interaction score in [1] (mean of both orientations) is -0.226; in [2] it was 0.253; in assay [3] (mean of both orientations) it was -0.283; in [4], -1.33; in [5] it was 1.62; in [6], 1.67. The interaction score in [7] (mean of both orientations) is -0.0454; in assay [8] it was 1.75; in assay [9], 1.38; in assay [10], 0.974; in [11] it was 0.916; in assay [12] it was -0.759.
For DEIAALEAESAALEAESAALEAEIAALEG [P1-AA-12HAA-S], the interaction score was -0.4 in assay [1]; 0.962 in assay [2]; 1.11 in assay [3] (mean of both orientations); 0.951 in assay [4]; 2.15 in assay [5] (mean of both orientations); 1.69 in assay [6]. Also, the interaction score in assay [7] (mean of both orientations) was 1.26; in assay [8], 2.24; in [9], 1.8; in assay [10], 1.58; in [11] it was 0.635; in [12] it was -0.855.
Turning to DEIAALEAELAALEAELAALEAEIAALEG [P1-AA-12HAA-L], the interaction score in assay [1] (mean of both orientations) stood at 1.74; in assay [2] it was 2.1; in [3] (mean of both orientations), 1.7; in assay [4] it was 1.6; in [5] (mean of both orientations), 2.35; in assay [6] it was 1.68. Also, the interaction score in [7] was determined as 1.59; in assay [8] it was 1.49; in assay [9], 2.38; in [10], 1.84; in [11] it was 1.68; in assay [12], 1.26.
As to DEIAALEAEEAALEAEEAALEAEIAALEG [P1-AA-12HAA-E], the interaction score in assay [1] (mean of both orientations) was -0.819; in assay [2], 0.375; in [3] (mean of both orientations), 1.71; in assay [4], 1.62; in assay [5] (mean of both orientations), 1.82; in [6] it was 1.5. In addition, the interaction score in assay [7] (mean of both orientations) was 0.789; in assay [8], 1.91; in assay [9], 1.49; in assay [10] it was 1.59; in [11], -0.0466; in assay [12], -1.42.
In the case of DENAALEAKEAALKAKNAALKAEIAALEG [P5-AA-1HAA-E], the interaction score is -1.41 in [13]; -0.801 in [14]; -1.78 in assay [15]; -1.76 in assay [16]; -1.33 in [17]; 1.57 in assay [18]. Besides, the interaction score in assay [19] was -0.649; in [20], -1.42; in [21], -1.13; in [22], 0.711; in assay [23] it was -0.112.
As for DEIAALEAEYAALEAEYAALEAEIAALEG [P1-AA-12HAA-Y], the interaction score in assay [1] stood at 1.74; in assay [2] it was 1.76; in assay [3] (mean of both orientations), 1.4; in [4], 1.89; in assay [5] (mean of both orientations) it was 2.1; in assay [6], 1.8. Further, the interaction score is 1.85 in assay [7] (mean of both orientations); 1.97 in [8]; 1.72 in assay [9]; 1.67 in assay [10]; 2.02 in [11]; -0.93 in [12].
